The values below come from doi:10.1101/2023.12.07.570558 (bioRxiv, 2023).

Changes are numbered by the printed parent chain.

The test deals with T1, His-tagged SIRT1 (bacterially expressed) (human, UniProt Q96EB6).
T1 sequence: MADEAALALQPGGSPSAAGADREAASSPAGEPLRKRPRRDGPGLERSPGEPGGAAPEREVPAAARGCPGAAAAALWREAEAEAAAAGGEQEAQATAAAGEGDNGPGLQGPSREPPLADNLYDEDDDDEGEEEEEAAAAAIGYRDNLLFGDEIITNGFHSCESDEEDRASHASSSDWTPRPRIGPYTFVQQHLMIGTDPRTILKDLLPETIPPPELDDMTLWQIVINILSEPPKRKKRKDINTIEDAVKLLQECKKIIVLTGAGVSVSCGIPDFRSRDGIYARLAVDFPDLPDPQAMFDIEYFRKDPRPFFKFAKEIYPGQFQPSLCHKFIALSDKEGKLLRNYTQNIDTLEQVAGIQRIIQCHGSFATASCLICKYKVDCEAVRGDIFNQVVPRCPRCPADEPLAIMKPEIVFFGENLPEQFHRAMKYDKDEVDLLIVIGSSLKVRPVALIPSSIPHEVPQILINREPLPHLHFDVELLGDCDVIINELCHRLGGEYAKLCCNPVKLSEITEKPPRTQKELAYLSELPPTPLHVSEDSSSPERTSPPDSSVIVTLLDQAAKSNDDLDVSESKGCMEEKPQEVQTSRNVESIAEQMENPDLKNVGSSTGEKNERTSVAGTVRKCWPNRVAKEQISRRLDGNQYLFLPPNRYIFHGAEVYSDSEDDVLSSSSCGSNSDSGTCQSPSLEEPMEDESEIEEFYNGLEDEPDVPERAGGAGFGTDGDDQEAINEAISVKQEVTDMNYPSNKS
As to the kind of experiment: SEC. (In gel filtration, larger molecules generally elute earlier.)

B1: His-tagged TULP3 (bacterially expressed) (natural protein)
chain: MEASRCRLSPSGDSVFHEEMMKMRQAKLDYQRLLLEKRQRKKRLEPFMVQPNPEARLRRAKPRASDEQTPLVNCHTPHSNVILHGIDGPAAVLKPDEVHAPSVSSSVVEEDAENTVDTASKPGLQERLQKHDISESVNFDEETDGISQSACLERPNSASSQNSTDTGTSGSATAAQPADNLLGDIDDLEDFVYSPAPQGVTVRCRIIRDKRGMDRGLFPTYYMYLEKEENQKIFLLAARKRKKSKTANYLISIDPVDLSREGESYVGKLRSNLMGTKFTVYDRGICPMKGRGLVGAAHTRQELAAISYETNVLGFKGPRKMSVIIPGMTLNHKQIPYQPQNNHDSLLSRWQNRTMENLVELHNKAPVWNSDTQSYVLNFRGRVTQASVKNFQIVHKNDPDYIVMQFGRVADDVFTLDYNYPLCAVQAFGIGLSSFDSKLACE
On to B1, for which the binding result is “binds”.

B2: His-tagged TULP3-4G (natural protein)
chain: B1 chain with Y193G, P195G, K333G, P336G
For the molecule B2, the binding result is “binds”.
